Here are results for five substances from patent US20190233477A1.

In test [1] the target is NRPS Pc21g12630 protein ChyA (Penicillium chrysogenum).
Test [2] has as its target NRPS N-(5-amino-5-carboxypentanoyl)-L-cysteinyl-D-valine synthase PcbAB (Penicillium chrysogenum).
For test [3], the target named is NRPS Roquefortine/meleagrin synthesis protein A RoqA (Penicillium chrysogenum).

Sequence of MbtH-like protein Tcp13 from the teicoplanin biosynthesis cluster from Actinoplanes teichomyceticus (chain): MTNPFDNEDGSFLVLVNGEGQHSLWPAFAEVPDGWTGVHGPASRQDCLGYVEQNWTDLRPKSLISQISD
Sequence of MbtH-like homologue identified in the Veg biosynthesis cluster obtainable from an uncultured soil bacterium, called VEG8 (chain): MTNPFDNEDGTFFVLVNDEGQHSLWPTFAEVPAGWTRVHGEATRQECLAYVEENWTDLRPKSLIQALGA

“MbtH-like homologue SCO0489 from the calcium dependent antibiotic (CDA) biosynthesis cluster from Streptomyces coelicolor, called CDAI” gave a relative productivity of Chrysogenin 12 (chrysogenin cluster), day 5, strain DS47274, transformant 9-4, LC/MS, untransformed strain set to 1.0 (fold of the untransformed strain (1.0)) in test [1] of 413. Further, the relative productivity of LLD-ACV (penicillin cluster), day 5, strain DS47274, transformant 9-5, LC/MS, untransformed strain set to 1.0 (fold of the untransformed strain (1.0)) in test [2] was found to be 12.5. In addition, in test [3], the relative productivity of HTD (roquefortine cluster), day 2, strain DS47274, transformant 9-5, LC/MS, untransformed strain set to 1.0 (fold of the untransformed strain (1.0)) was 4.48.
“MbtH-like homologue identified in the Veg biosynthesis cluster obtainable from an uncultured soil bacterium, called VEG8” came in with a relative productivity of Chrysogenin 12 (chrysogenin cluster), day 5, strain DS47274, transformant 12-4, LC/MS, untransformed strain set to 1.0 (fold of the untransformed strain (1.0)) in test [1] of 189. This substance yielded a relative productivity of LLD-ACV (penicillin cluster), day 5, strain DS47274, transformant 12-4, LC/MS, untransformed strain set to 1.0 (fold of the untransformed strain (1.0)) in test [2] of 2.32. In test [3], the relative productivity of HTD (roquefortine cluster), day 2, strain DS47274, transformant 12-4, LC/MS, untransformed strain set to 1.0 (fold of the untransformed strain (1.0)) turned out to be 2.9.
“MbtH-like protein Tcp13 from the teicoplanin biosynthesis cluster from Actinoplanes teichomyceticus” returned a relative productivity of Chrysogenin 12 (chrysogenin cluster), day 5, strain DS47274, transformant 10-5, LC/MS, untransformed strain set to 1.0 (fold of the untransformed strain (1.0)) in test [1] of 465. The relative productivity of LLD-ACV (penicillin cluster), day 5, strain DS47274, transformant 10-2, LC/MS, untransformed strain set to 1.0 (fold of the untransformed strain (1.0)) in test [2] was 16.1. Also, the relative productivity of HTD (roquefortine cluster), day 2, strain DS47274, transformant 10-2, LC/MS, untransformed strain set to 1.0 (fold of the untransformed strain (1.0)) in test [3] amounted to 2.64.
As to “MbtH-like homologue identified in the Teg biosynthesis cluster obtainable from an uncultured soil bacterium, called TEG”, the relative productivity of Chrysogenin 12 (chrysogenin cluster), day 5, strain DS47274, transformant 11-5, LC/MS, untransformed strain set to 1.0 (fold of the untransformed strain (1.0)) in test [1] was found to be 266. Moreover, in test [2], the relative productivity of LLD-ACV (penicillin cluster), day 5, strain DS47274, transformant 11-5, LC/MS, untransformed strain set to 1.0 (fold of the untransformed strain (1.0)) came out at 10.9. The substance further returned a relative productivity of HTD (roquefortine cluster), day 2, strain DS47274, transformant 11-5, LC/MS, untransformed strain set to 1.0 (fold of the untransformed strain (1.0)) in test [3] of 9.35.
In test [1], “MbtH-like homologue from the complestatine biosynthesis cluster from Streptomyces lavendulae, called COM” yielded a relative productivity of Chrysogenin 12 (chrysogenin cluster), day 5, strain DS47274, transformant 7-3, LC/MS, untransformed strain set to 1.0 (fold of the untransformed strain (1.0)) of 317. Further, the relative productivity of LLD-ACV (penicillin cluster), day 5, strain DS47274, transformant 7-3, LC/MS, untransformed strain set to 1.0 (fold of the untransformed strain (1.0)) in test [2] is 22.7. Further, the relative productivity of HTD (roquefortine cluster), day 2, strain DS47274, transformant 8-4, LC/MS, untransformed strain set to 1.0 (fold of the untransformed strain (1.0)) in test [3] is 2.32.
